# Measurements: the supplement of paper PMC9732359
# ± gives the uncertainty stated by the source.
# Experiment: protein stability index of a GFP-peptide fusion (yeast GPS) (PSI 1-4); higher = more stable; sorted into four equal gates, so the index is relative within each strain
# How it was run: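 Tiled 17-residue peptides from yeast proteins were fused downstream of GFP on a plasmid that also expresses Cherry, and the pooled library was carried in yeast. Mid-log cultures grown in leucine-free medium were sorted into four equal gates by GFP/Cherry fluorescence ratio. Plasmids from each gate were PCR-amplified and Illumina-sequenced, and reads were assigned to strains by barcodes. Each peptide's protein stability index is the sum, over gates, of the gate's read frequency multiplied by its gate number.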
Sequence,protein stability index (doa10∆),protein stability index (pdr5∆),protein stability index (san1∆),protein stability index (ubr1∆)
TSLTSIKWENAFVSVYS [PRP8],2.94 ± 0.07,2.62 ± 0.07,3 ± 0.08,2.67 ± 0.038
ATDLAGPANNPNEFMQF [PRP8],3.21 ± 0.063,3.35 ± 0.059,3.23 ± 0.033,3.4 ± 0.05
EHTDVIDELIDTKLRLE [YIL149C/MLP2],2.87 ± 0.052,3 ± 0.059,2.77 ± 0.039,2.7 ± 0.034
PEWMILTCLPVPPPPVR [RPO21],,3.52 ± 0.17,,
CVKNHGQSSSIQSSLMT [YCS4],2.48 ± 0.17,2.67 ± 0.14,2.83 ± 0.052,3.05 ± 0.1
WDLSVEDALYLGKRSIL [PRE2],3.4 ± 0.06,3.34 ± 0.056,3.17 ± 0.064,3.39 ± 0.048
VKEESQPDENTKEMDEV [SWI3],3.3 ± 0.19,2.81 ± 0.24,3.07 ± 0.17,3.03 ± 0.11
AFQLADGIHYILNHIGQ [PRP8],2.71 ± 0.14,2.97 ± 0.16,2.71 ± 0.24,2.65 ± 0.14
VLKFTFTGEKPIITGST [MED8],2.01 ± 0.082,2.18 ± 0.074,2.04 ± 0.12,2.07 ± 0.062
LFGQSQQPQTNTAPGLG [YGR119C/NUP57],2.68 ± 0.2,2.88 ± 0.27,3.14 ± 0.16,2.97 ± 0.092
ATDPVAAKPDNLANFSN [SWP82],3.27 ± 0.077,3.18 ± 0.084,3.21 ± 0.051,3.26 ± 0.057
LIITRKAFKNNSSKYYI [SMC4],2.59 ± 0.083,2.98 ± 0.092,2.66 ± 0.068,2.69 ± 0.11
VRVQRQKKILSIRLKVP [RPL8A],1.49 ± 0.032,1.28 ± 0.032,1.26 ± 0.054,1.25 ± 0.025
KKRKNKSSGSSMATPTH [ROX3],2.99 ± 0.071,3.12 ± 0.077,2.96 ± 0.051,3.28 ± 0.063
ILLTSISRERDLFTHLW [SRP68],2.85 ± 0.13,2.71 ± 0.18,2.75 ± 0.1,2.73 ± 0.11
EEIFFKSVRILKNKAEY [RPC40],3.2 ± 0.074,3.2 ± 0.085,3.06 ± 0.062,3.16 ± 0.047
LTTQFVTDKYTAKKTNR [YDL088C/ASM4],2.74 ± 0.14,2.83 ± 0.093,,2.8 ± 0.11
DIPELSFFHQSNMQKSL [RPN3],2.56 ± 0.065,2.13 ± 0.067,2.8 ± 0.068,2.87 ± 0.045
AVSEKAGHQTSAESWGT [RPL4A],2.24 ± 0.086,2.03 ± 0.1,1.71 ± 0.11,1.86 ± 0.088
FLYEILSSLKSFAIYSS [SRB8],1.24 ± 0.053,1.16 ± 0.038,1.34 ± 0.099,1.14 ± 0.047
YVSALKRINKFLDSVHK [POP7],1.91 ± 0.049,1.56 ± 0.037,2 ± 0.068,1.8 ± 0.034
LRQQYEIELKKLPKVYK [SWI1],2.04 ± 0.067,1.75 ± 0.066,2.22 ± 0.12,2.75 ± 0.073
RRLAFLGIKVAELTGDS [BRR2],,2.24 ± 0.19,2.71 ± 0.16,
SDIPVSENVFEGLTYKY [SSN3],1.82 ± 0.078,1.89 ± 0.1,,1.98 ± 0.042
SVLDEQEQYQTNTFEGS [SNU114],3.12 ± 0.14,3.22 ± 0.08,3.26 ± 0.11,3.31 ± 0.071
KGKDFEITAKEVYDFTH [FAS1],3.09 ± 0.059,3.23 ± 0.055,2.97 ± 0.052,3.05 ± 0.046
QLPVGFKNMGNTCYLNA [UBP6],2.16 ± 0.073,1.76 ± 0.079,1.48 ± 0.12,1.6 ± 0.084

Sequence,protein stability index (doa10∆),protein stability index (pdr5∆),protein stability index (san1∆),protein stability index (ubr1∆)
AVLSYYKVDAEGKVTKL [RPS31],2.98 ± 0.11,2.99 ± 0.13,3.03 ± 0.083,3.27 ± 0.065
QMIELNRQICLVQKTVQ [GRR1],3.03 ± 0.1,2.56 ± 0.055,2.5 ± 0.063,2.09 ± 0.055
LQIVNQLPANMVHLYSI [RPC17],1.85 ± 0.043,1.9 ± 0.045,1.67 ± 0.068,1.79 ± 0.039
RQKARTDAHTPLARNYI [RPR2],2.63 ± 0.054,2.52 ± 0.058,2.78 ± 0.049,2.86 ± 0.042
GRPETYIWRYLPAPPVC [RPO31],1.5 ± 0.18,1.57 ± 0.12,1.17 ± 0.16,2.02 ± 0.1
KKSLEEDDEFEDFPIDT [SEM1],3 ± 0.13,3.02 ± 0.13,2.66 ± 0.14,3.02 ± 0.088
SKGFVFNSVQKKSRSNL [YAR002W/NUP60],3.03 ± 0.2,,2.96 ± 0.17,
TPSFSFGKTTANLPANS [YLR335W/NUP2],2.84 ± 0.069,2.96 ± 0.1,3.01 ± 0.13,3.19 ± 0.054
INYQVDSKLLPKNIEPP [SWI3],2.92 ± 0.083,2.81 ± 0.1,2.58 ± 0.064,2.65 ± 0.066
DRVAKVLTYPEKVTRYN [RPO31],2.87 ± 0.12,2.92 ± 0.14,2.94 ± 0.29,2.98 ± 0.17
DIYSHEYKVITSLQGTY [YMR129W/POM152],1.89 ± 0.064,2.43 ± 0.07,2.65 ± 0.075,2.49 ± 0.048
FDEEFDPFKTSSFNKRS [IRR1],2.76 ± 0.083,2.92 ± 0.061,2.81 ± 0.11,2.78 ± 0.084
DEEETAEGQTNSISDFL [RPN1],2.84 ± 0.14,3.13 ± 0.094,2.94 ± 0.078,3.04 ± 0.069
TTEMLDKLMVTSIRSTP [MED6],2.27 ± 0.14,2.45 ± 0.12,2.81 ± 0.27,2.53 ± 0.089
ENDTNMNETLNLKVELK [SMC4],3.43 ± 0.2,3.17 ± 0.084,3.09 ± 0.13,2.99 ± 0.077
NLLLRELNVEKLNTFNL [SRP72],2.71 ± 0.15,3.41 ± 0.2,2.95 ± 0.099,2.95 ± 0.13
MQVLNTKSETKQENETM [MED11],2.79 ± 0.081,2.16 ± 0.11,1.41 ± 0.26,2 ± 0.092
DENTSGKISKPRFLNKQ [PRP28],,3.4 ± 0.23,,3.16 ± 0.15
KLHEFYLLISKENKKRK [IRR1],2.96 ± 0.081,2.65 ± 0.066,2.89 ± 0.051,3.04 ± 0.067
KEEFRLMISPKDEETTE [RRI2],1.75 ± 0.069,1.68 ± 0.055,1.14 ± 0.14,1.5 ± 0.039
NACAKYGRDDMENIKKS [ISW2],2.91 ± 0.11,2.93 ± 0.12,3.08 ± 0.078,3.06 ± 0.086
MPDEFNTLYTAIITDDL [SRP72],2.39 ± 0.047,2.5 ± 0.043,2.6 ± 0.035,2.64 ± 0.043
GKEFEARNLIEDEDDGE [RPC53],3.46 ± 0.16,3.58 ± 0.14,3.41 ± 0.1,2.94 ± 0.14
FVPNDGCLNFVDENDEV [RPS23A],2.94 ± 0.063,3.04 ± 0.071,2.78 ± 0.05,2.65 ± 0.055
PANVLLVQSLNDMVLEL [NNF1],2.67 ± 0.18,2.68 ± 0.17,2.83 ± 0.13,2.94 ± 0.057
ELNSSEDILEDMNSNLQ [SMC1],3.38 ± 0.072,3.32 ± 0.072,3.24 ± 0.045,3.2 ± 0.054
